Assay results reported in paper PMC2408616, “Modular Organization and Combinatorial Energetics of Proline–Tyrosine Nuclear Localization Signals” (PLoS Biology, 2008).

Columns and labels:
Experiment in all cases: ITC
[1] = molecular target: T1, MBP–Nab2p NLS R235A (S. cerevisiae, UniProt P32505 201-251, R235A)
T1 sequence: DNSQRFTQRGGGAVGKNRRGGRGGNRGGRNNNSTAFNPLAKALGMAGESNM

[2] = molecular target: T2, MBP–Nab2p NLS R235H (S. cerevisiae, UniProt P32505 201-251, R235 to histidine)
T2 sequence: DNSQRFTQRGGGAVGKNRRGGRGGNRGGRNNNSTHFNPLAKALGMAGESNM

[3] = molecular target: T3, MBP–Nab2p NLS F236A (S. cerevisiae, UniProt P32505 201-251, F236A)
T3 sequence: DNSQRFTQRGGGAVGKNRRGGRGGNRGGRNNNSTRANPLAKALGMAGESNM

[4] = molecular target: T4, MBP–Nab2p NLS F236L (S. cerevisiae, UniProt P32505 201-251, F236L)
T4 sequence: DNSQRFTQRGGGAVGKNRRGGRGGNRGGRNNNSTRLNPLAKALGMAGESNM

[5] = molecular target: T5, MBP–Nab2p NLS, all of the arginines mutated to lysines (S. cerevisiae, UniProt P32505 201-251, R218K | R219K | R222K | R226K | R229K)
T5 sequence: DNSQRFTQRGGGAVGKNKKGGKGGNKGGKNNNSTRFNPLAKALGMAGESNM

B1: Kap104p (receptor)
chain: MASTWKPAEDYVLQLATLLQNCMSPNPEIRNNAMEAMENFQLQPEFLNYLCYILIEGESDDVLKQHYSLQDLQNNRATAGMLLKNSMLGGNNLIKSNSHDLGYVKSNIIHGLYNSNNNLVSNVTGIVITTLFSTYYRQHRDDPTGLQMLYQLLELTSNGNEPSIKALSKIMEDSAQFFQLEWSGNTKPMEALLDSFFRFISNPNFSPVIRSESVKCINTVIPLQTQSFIVRLDKFLEIIFQLAQNDENDLVRAQICISFSFLLEFRPDKLVSHLDGIVQFMLHLITTVNEEKVAIEACEFLHAFATSPNIPEHILQPYVKDIVPILLSKMVYNEESIVLLEASNDDDAFLEDKDEDIKPIAPRIVKKKEAGNGEDADDNEDDDDDDDDEDGDVDTQWNLRKCSAATLDVMTNILPHQVMDIAFPFLREHLGSDRWFIREATILALGAMAEGGMKYFNDGLPALIPFLVEQLNDKWAPVRKMTCWTLSRFSPWILQDHTEFLIPVLEPIINTLMDKKKDVQEAAISSVAVFIENADSELVETLFYSQLLTSFDKCLKYYKKKNLIILYDAIGRFAEKCALDETAMQIILPPLIEKWALLSDSDKELWPLLECLSCVASSLGERFMPMAPEVYNRAFRILCHCVELEAKSHQDPTIVVPEKDFIITSLDLIDGLVQGLGAHSQDLLFPQGTKDLTILKIMLECLQDPVHEVRQSCFALLGDIVYFFNSELVIGNLEDFLKLIGTEIMHNDDSDGTPAVINAIWALGLISERIDLNTYIIDMSRIILDLFTTNTQIVDSSVMENLSVTIGKMGLTHPEVFSSGAFANDSNWNKWCLSVNALDDVEEKSSAYMGFLKIINLTSTEVTMSNDTIHKIVTGLSSNVEANVFAQEIYTFLMNHSAQISAINFTPDEISFLQQFTS
Kd [1]: 203 nM
Kd [2]: 63 nM
Kd [3]: 296 nM
Kd [4]: 66 nM
Kd [5]: 21 nM
